Laboratory results taken from patent EP4810519A2.

What was measured:
human CD3 (human) [1] = target: human CD3 (human) (UniProt P07766); experiment: Biacore; glofitamab formulations F1, F3 and F4 after storage at 40°C, relative to initial
human CD3 (human) [2] = target: human CD3 (human) (UniProt P07766); experiment: Biacore; glofitamab formulations F2 and F5 after storage at 40°C, relative to initial

Sequence of UniProt P07766 (P07766 23-126): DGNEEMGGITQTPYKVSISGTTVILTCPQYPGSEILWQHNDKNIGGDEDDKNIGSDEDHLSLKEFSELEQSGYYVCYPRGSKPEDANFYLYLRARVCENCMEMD

loss of CD3 binding (human CD3 (human) [1]): 10 to 20%
loss of CD3 binding (human CD3 (human) [2]): < 50%
Substance: glofitamab (bispecific antibody)
